As usually defined, the Kd is the constant that tells how readily two partners part at equilibrium. High values mean lower affinity, low ones higher affinity.

The target of the data set is human serum albumin (HSA) (Homo sapiens) (UniProt P02768). In words: ELONA. Particulars: Nap-dU at all positions marked 6 (n); bead-based ELISA, buffer SB18 (5 mM MgCl2), 37 C. In general terms: ELISA stands for enzyme-linked immunosorbent assay.

CAGGTCGAGCTGTACGCGTGTGTGACCTG [AL006] registered a Kd of 19 nM.

The sequence “CTCTCCCAGGTCGAGCTGTACGCGTGTGTGACCTG [AL003]” displayed a Kd of 2.24 nM.

For the sequence “CTCTCCCAGGTCGAGCTGTACGCGTGTGTGACCTGACGTG [AL002]”, the Kd is 20.7 nM.

The sequence TCCCAGGTCGAGCTGTACGCGTGTGTGACC [AL005] yielded a dissociation constant (Kd) of 14.7 nM. This Kd and that of the sequence before are within 1.5-fold of each other.

The values are drawn from patent US20240327848.
